Tests used:
Assay in all cases: SPR, pH 7.4
Settings in all cases: remark: other sources report otherwise
FcγRIIIa (human) = FcγRIIIa (human) (UniProt P08637)
FcγRIIIb (human) = FcγRIIIb (human) (UniProt O75015)
FcγRI (human) = FcγRI (human) (UniProt P12314)
Sequence of FcγRI (human) (P12314 16-288): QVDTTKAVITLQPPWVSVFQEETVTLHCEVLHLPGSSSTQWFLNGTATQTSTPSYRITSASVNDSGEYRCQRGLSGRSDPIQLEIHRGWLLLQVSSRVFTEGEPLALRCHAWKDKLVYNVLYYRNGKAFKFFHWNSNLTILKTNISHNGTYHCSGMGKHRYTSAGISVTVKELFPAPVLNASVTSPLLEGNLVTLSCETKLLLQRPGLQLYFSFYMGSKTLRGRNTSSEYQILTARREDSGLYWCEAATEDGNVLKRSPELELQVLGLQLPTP

Sequence of FcγRIIIa (human) (P08637 17-208): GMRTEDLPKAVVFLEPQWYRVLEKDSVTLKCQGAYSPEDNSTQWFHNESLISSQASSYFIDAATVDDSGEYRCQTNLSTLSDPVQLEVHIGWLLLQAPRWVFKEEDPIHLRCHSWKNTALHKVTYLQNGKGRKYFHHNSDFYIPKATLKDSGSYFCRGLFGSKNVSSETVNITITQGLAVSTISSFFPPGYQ
Sequence of FcγRIIIb (human) (O75015 17-200): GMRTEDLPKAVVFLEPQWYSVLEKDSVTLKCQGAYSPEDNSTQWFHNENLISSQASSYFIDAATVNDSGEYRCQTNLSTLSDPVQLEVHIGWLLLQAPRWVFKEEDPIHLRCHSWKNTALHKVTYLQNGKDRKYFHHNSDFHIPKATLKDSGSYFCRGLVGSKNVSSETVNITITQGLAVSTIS

Kd (FcγRIIIa (human)): 6.78 µM
Kd (FcγRIIIb (human)): 3.49 µM
Kd (FcγRI (human)): 3.78 µM
Substance: eculizumab (full length)
